This note sets out measurements from patent US20250155438A1 (KING ABDULAZIZ UNIVERSITY, published 2025).

This test has as its target T1, SARS-CoV-2 nucleocapsid protein (SARS-CoV-2, UniProt P0DTC9 1-419).
T1 construct: also called NCAP; N-capsid

B1: anti-NCAP-2 nanobody (VHH, not shown: small tags and cut ends)
VHH: QVQLVESGGALMQAGGSLRLSCAVSGIRLGYYTIAWFRQAPGKEREGISCISRSEGSTYYADSVKGRFTISTENAENTVYLQMNSLKPDDTAVYYCAVDFVPASHCAVANTKGYDYWGQGTQVTVSS
notes: also called N Capsid nanobody NCAP-2
With B1, the binding result is “binds”.
